Reference: article PMC5374524, “Label-free quantification of calcium-sensor targeting to photoreceptor guanylate cyclase and rhodopsin kinase by backscattering interferometry” (Scientific Reports, 2017)

Assays:
[1] = target: full-length human photoreceptor guanylate cyclase GC-E (human) (UniProt Q02846); experiment: backscattering interferometry (BSI); free solution; HEK cell vesicles with full-length human GC-E with 0-10 μM GCAP; titration buffer with saturating 200 μM Ca2+; Mock-HEK vesicles as reference
[2] = target: MBP-KHD: maltose binding protein fused to the juxta-membrane and kinase homology domain of human GC-E (M496-K806) (human) (UniProt Q02846); experiment: backscattering interferometry (BSI); free solution; myristoylated GCAP 0 to 6 μM with constant 375 nM MBP fusion protein; titration buffer with 200 μM Ca2+; MBP lacking a GC-E fragment as reference
[3] = target: MBP-KHD: maltose binding protein fused to the juxta-membrane and kinase homology domain of human GC-E (M496-K806) (human) (UniProt Q02846); experiment: ITC; VP-ITC, 25 °C; MBP fusion protein 0.5 μM in the cell, GCAP 10 μM in the syringe; 30 mM Mops/KOH pH 7.2, 60 mM KCl, 4 mM NaCl, 1 mM DTT, 3.5 mM MgCl2, 1 mM GTP, 0.3 mM ATP; injections into MBP subtracted; one binding site model; data not shown
[4] = target: full-length human photoreceptor guanylate cyclase GC-E (human) (UniProt Q02846); experiment: backscattering interferometry (BSI); free solution; HEK cell vesicles with full-length human GC-E (50 μg/mL total protein before mixing) with 0-10 μM GCAP; 30 mM Mops/KOH pH 7.2, 60 mM KCl, 4 mM NaCl, 1 mM DTT, 3.5 mM MgCl2, 1 mM GTP, 0.3 mM ATP; 1 mM EGTA; Mock-HEK vesicles as reference; apparent KD
[5] = target: T1, myristoylated bovine recoverin (bovine, UniProt P21457 1-202, myristoylated); experiment: backscattering interferometry (BSI); free solution, label-free; recoverin dilution series with constant 4 μM GST-NRK; 20 mM HEPES/KOH pH 7.5, 100 mM NaCl, 1 mM MgCl2, 200 μM CaCl2; GST alone as reference; one site binding model; conditions: both partners purified
T1 construct: recoverin, bovine, neuronal Ca2+-sensor protein of photoreceptors
T1 sequence (looked up): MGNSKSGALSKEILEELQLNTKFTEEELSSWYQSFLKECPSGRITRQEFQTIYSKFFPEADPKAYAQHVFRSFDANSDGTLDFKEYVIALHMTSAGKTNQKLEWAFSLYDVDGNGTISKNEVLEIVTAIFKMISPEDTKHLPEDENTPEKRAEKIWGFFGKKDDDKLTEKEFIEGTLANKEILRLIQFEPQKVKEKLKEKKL

[6] = target: T2, full-length human photoreceptor guanylate cyclase GC-E (human, UniProt Q02846 52-1103); experiment: backscattering interferometry (BSI); free solution; HEK cell vesicles with full-length human GC-E with 0-10 μM GCAP; titration buffer with saturating 200 μM Ca2+; Mock-HEK vesicles as reference; conditions: one partner purified
T2 construct: also called guanylate cyclase 1; guanylate cyclase type 1
T2 sequence (looked up): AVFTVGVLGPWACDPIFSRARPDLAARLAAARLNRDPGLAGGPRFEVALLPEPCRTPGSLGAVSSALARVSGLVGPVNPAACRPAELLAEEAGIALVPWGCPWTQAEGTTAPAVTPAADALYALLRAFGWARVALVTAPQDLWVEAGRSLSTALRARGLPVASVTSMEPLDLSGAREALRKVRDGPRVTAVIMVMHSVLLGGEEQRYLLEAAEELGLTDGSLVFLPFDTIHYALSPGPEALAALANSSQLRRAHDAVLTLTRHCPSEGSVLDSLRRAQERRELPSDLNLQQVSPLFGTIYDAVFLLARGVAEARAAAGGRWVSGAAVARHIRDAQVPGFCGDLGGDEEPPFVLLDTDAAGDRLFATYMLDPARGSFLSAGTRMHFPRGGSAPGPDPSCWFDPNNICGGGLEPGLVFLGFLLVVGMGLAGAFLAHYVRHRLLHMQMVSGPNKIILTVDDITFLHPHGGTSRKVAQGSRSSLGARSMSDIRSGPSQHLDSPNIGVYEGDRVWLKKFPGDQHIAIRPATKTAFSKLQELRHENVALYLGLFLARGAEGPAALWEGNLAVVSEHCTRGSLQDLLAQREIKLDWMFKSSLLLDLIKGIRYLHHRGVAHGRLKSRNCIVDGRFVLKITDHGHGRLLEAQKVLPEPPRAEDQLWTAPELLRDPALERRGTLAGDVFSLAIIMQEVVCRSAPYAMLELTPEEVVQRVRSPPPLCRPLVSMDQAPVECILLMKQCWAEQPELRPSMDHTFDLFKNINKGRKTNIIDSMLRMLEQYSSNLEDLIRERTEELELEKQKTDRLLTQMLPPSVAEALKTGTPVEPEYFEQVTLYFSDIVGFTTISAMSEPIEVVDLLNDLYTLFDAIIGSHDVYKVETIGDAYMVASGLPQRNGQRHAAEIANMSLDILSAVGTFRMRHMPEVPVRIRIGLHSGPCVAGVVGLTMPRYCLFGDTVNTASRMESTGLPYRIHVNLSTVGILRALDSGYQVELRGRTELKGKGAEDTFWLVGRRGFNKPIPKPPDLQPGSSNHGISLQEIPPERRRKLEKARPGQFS

[7] = target: T2, full-length human photoreceptor …; experiment: backscattering interferometry (BSI); free solution; HEK cell vesicles with full-length human GC-E (50 μg/mL total protein before mixing) with 0-10 μM GCAP; 30 mM Mops/KOH pH 7.2, 60 mM KCl, 4 mM NaCl, 1 mM DTT, 3.5 mM MgCl2, 1 mM GTP, 0.3 mM ATP; 1 mM EGTA; Mock-HEK vesicles as reference; apparent KD; conditions: one partner purified

guanylate cyclase-activating protein 1 (GCAP1), myristoylated (from UniProt P46065 1-205) (natural protein)
Kd [1]: 505 nM | Kd [2]: 841 nM | Kd [3]: 580 nM | stoichiometry N [3]: 0.9 | Kd [4]: 663 nM

B1: GST fusion protein containing the N-terminal 25 amino acids of bovine GRK1 (domain or fragment, UniProt P28327 1-25, looked up)
chain: MDFGSLETVVANSAFIAARGSFDAS
notes: rhodopsin kinase GRK1, bovine, the N-terminal 25 amino acids; also called NRK; N-terminal GRK1 fragment
Kd [5]: 4720 nM

B2: guanylate cyclase-activating protein 2 (GCAP2), myristoylated (natural protein, UniProt P51177 1-204, looked up)
chain: MGQQFSWEEAEENGAVGAADAAQLQEWYKKFLEECPSGTLFMHEFKRFFKVPDNEEATQYVEAMFRAFDTNGDNTIDFLEYVAALNLVLRGTLEHKLKWTFKIYDKDRNGCIDRQELLDIVESIYKLKKACSVEVEAEQQGKLLTPEEVVDRIFLLVDENGDGQLSLNEFVEGARRDKWVMKMLQMDLNPSSWISQQRRKSAMF
modifications: myristoylated
Kd [6]: 418 ± 135 nM | Kd [7]: 231 nM
